According to US20140220004A1:

Biological target: human transient receptor potential cation channel, subfamily A, member 1 (hTRPA1) (human) (UniProt O75762)
Test: cell-based or functional assay

Chain of UniProt O75762 (O75762 whole entry): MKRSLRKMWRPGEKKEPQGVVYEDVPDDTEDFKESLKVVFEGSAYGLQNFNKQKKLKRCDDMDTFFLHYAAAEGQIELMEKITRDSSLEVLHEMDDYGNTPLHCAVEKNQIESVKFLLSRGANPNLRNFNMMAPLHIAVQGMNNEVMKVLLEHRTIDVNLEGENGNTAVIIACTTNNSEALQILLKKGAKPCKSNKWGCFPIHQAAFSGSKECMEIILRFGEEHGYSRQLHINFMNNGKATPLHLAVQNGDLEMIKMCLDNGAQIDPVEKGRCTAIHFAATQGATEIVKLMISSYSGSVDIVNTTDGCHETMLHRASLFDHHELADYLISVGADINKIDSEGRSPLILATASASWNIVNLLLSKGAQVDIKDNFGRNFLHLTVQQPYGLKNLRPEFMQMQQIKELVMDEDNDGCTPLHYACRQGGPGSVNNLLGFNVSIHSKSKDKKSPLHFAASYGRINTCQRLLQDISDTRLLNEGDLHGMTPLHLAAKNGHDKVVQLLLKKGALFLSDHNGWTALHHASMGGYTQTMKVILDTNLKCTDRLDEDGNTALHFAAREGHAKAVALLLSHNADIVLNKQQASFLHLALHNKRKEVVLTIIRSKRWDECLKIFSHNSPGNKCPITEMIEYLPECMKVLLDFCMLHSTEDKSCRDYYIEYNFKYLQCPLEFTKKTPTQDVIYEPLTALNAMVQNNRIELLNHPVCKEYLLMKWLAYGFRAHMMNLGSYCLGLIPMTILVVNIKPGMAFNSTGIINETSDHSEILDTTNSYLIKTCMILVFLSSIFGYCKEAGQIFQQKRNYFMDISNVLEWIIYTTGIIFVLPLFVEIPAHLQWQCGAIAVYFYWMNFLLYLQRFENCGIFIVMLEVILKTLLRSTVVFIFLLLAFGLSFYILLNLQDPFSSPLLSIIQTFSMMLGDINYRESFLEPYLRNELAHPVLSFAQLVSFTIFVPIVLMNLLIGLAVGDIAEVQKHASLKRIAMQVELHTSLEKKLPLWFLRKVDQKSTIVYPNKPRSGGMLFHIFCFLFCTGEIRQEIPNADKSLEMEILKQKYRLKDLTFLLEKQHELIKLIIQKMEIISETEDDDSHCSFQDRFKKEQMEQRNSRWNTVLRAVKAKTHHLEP

calcium flux in HEK cells transfected to express human TRPA1 (EC50): 200 nM
Substance: rabbit metallothionein 2 A isoform containing 7 zinc atoms (rabbit Zn7-MT2A) (Bestenbalt LLC, Estonia) (from UniProt P18055 1-62) (ligand)
